Measurements taken from the supplement of paper PMC11246515.
± gives the standard deviation of the averaged measurements.

Experiment: total protein half-life in vivo (active degradation + dilution); higher = more stable protein
[1] = E. coli NCM3722 delta-clpP delta-lon delta-hslV, growth: N-lim chemostat, doubling time 6 h
[2] = E. coli NCM3722 delta-clpP, growth: N-lim chemostat, doubling time 6 h
[3] = E. coli NCM3722 delta-hslV, growth: N-lim chemostat, doubling time 6 h
[4] = E. coli NCM3722 delta-smpB, growth: N-lim chemostat, doubling time 6 h
[5] = wild type E. coli NCM3722, growth: C-lim chemostat, doubling time 3 h
[6] = wild type E. coli NCM3722, growth: C-lim chemostat, doubling time 6 h
[7] = wild type E. coli NCM3722, growth: C-lim chemostat, doubling time 12 h
[8] = wild type E. coli NCM3722, growth: N-lim chemostat, doubling time 6 h
[9] = wild type E. coli NCM3722, growth: N-lim chemostat, doubling time 12 h
[10] = wild type E. coli NCM3722, growth: P-lim chemostat, doubling time 6 h
[11] = wild type E. coli NCM3722, growth: P-lim chemostat, doubling time 12 h
[12] = E. coli NCM3722 delta-lon, growth: N-lim chemostat, doubling time 6 h

Sequence | total protein half-life in vivo [1] [h] | total protein half-life in vivo [2] [h] | total protein half-life in vivo [3] [h] | total protein half-life in vivo [4] [h] | total protein half-life in vivo [5] [h] | total protein half-life in vivo [6] [h] | total protein half-life in vivo [7] [h] | total protein half-life in vivo [8] [h] | total protein half-life in vivo [9] [h] | total protein half-life in vivo [10] [h] | total protein half-life in vivo [11] [h] | total protein half-life in vivo [12] [h]
MMINVQTVAVIGSGTMGAGIAEVAASHGHQVLLYDISAEALTRAIDGIHARLNSRVTRGKLTAETCERTLKRLIPVTDIHALAAADLVIEAASERLEVKKALFAQLAEVCPPQTLLTTNTSSISITAIAAEIKNPERVAGLHFFNPAPVMKLVEVVSGLATAAEVVEQLCELTLSWGKQPVRCHSTPGFIVNRVARPYYSEAWRALEEQVAAPEVIDAALRDGAGFPMGPLELTDLIGQDVNFAVTCSVFNAFWQERRFLPSLVQQELVIGGRLGKKSGLGVYDWRAEREAVVGLEAVSDSFSPMKVEKKSDGVTEIDDVLLIETQGETAQALAIRLARPVVVIDKMAGKVVTIAAAAVNPDSATRKAIYYLQQQGKTVLQIADYPGMLIWRTVAMIINEALDALQKGVASEQDIDTAMRLGVNYPYGPLAWGAQLGWQRILRLLENLQHHYGEERYRPCSLLRQRALLESGYES | > 8 |  |  |  |  |  |  |  |  |  |  | 
MMKKFIAPLLALLVSGCQIDPYTHAPTLTSTDWYDVGMEDAISGSAIKDDDAFSDSQADRGLYLKGYAEGQKKTCQTDFTYARGLSGKSFPASCNNVENASQLHEVWQKGADENASTIRLN | 3.02 ± 0.51 | 3.75 ± 0.11 | 4.8 | 3.95 ± 0.7 | 1.57 | 5.17 ± 0.12 | 8.56 ± 0.22 | 3.97 | 6.57 ± 0.068 | 4.95 | 10.9 | 
MMKTVNELIKDINSLTSHLHEKDFLLTWEQTPDELKQVLDVAAALKALRAENISTKVFNSGLGISVFRDNSTRTRFSYASALNLLGLAQQDLDEGKSQIAHGETVRETANMISFCADAIGIRDDMYLGAGNAYMREVGAALDDGYKQGVLPQRPALVNLQCDIDHPTQSMADLAWLREHFGSLENLKGKKIAMTWAYSPSYGKPLSVPQGIIGLMTRFGMDVTLAHPEGYDLIPDVVEVAKNNAKASGGSFRQVTSMEEAFKDADIVYPKSWAPYKVMEERTELLRANDHEGLKALEKQCLAQNAQHKDWHCTEEMMELTRDGEALYMHCLPADISGVSCKEGEVTEGVFEKYRIATYKEASWKPYIIAAMILSRKYAKPGALLEQLLKEAQERVK | 4.89 ± 0.5 | 2.63 | 2.5 ± 0.084 | 2.82 ± 0.23 | 2.94 ± 0.24 | 4.89 ± 0.37 | 9.18 ± 0.49 | 2.53 | 3.87 ± 0.06 |  |  | 3.03
MMLSATQPLSEKLPAHGCRHVAIIMDGNGRWAKKQGKIRAFGHKAGAKSVRRAVSFAANNGIEALTLYAFSSENWNRPAQEVSALMELFVWALDSEVKSLHRHNVRLRIIGDTSRFNSRLQERIRKSEALTAGNTGLTLNIAANYGGRWDIVQGVRQLAEKVQQGNLQPDQIDEEMLNQHVCMHELAPVDLVIRTGGEHRISNFLLWQIAYAELYFTDVLWPDFDEQDFEGALNAFANRERRFGGTEPGDETA | 4.31 ± 0.33 | 4.73 ± 0.53 | 2.9 ± 0.15 | 3.01 ± 0.68 | 2.21 ± 0.11 | 3.73 ± 0.41 | 5.97 | 3.18 ± 0.091 | 6.55 | 3.94 ± 0.13 | 5.49 ± 2.1 | 3.15 ± 0.76
MMLSEETSAVRPQKQTRFNGAKLVWMLKGSPLTVTSAVIIVLMLLMMIFSPWLATHDPNAIDLTARLLPPSAAHWFGTDEVGRDLFSRVLVGSQQSILAGLVVVAIAGMIGSLLGCLSGVLGGRADAIIMRIMDIMLSIPSLVLTMALAAALGPSLFNAMLAIAIVRIPFYVRLARGQALVVRQYTYVQAAKTFGASRWHLINWHILRNSLPPLIVQASLDIGSAILMAATLGFIGLGAQQPSAEWGAMVANGRNYVLDQWWYCAFPGAAILLTAVGFNLFGDGIRDLLDPKAGGKQS |  |  |  | 4.22 ± 0.1 |  |  |  | 4.15 | 6.94 |  |  | 
MMNDSFCRIIAGEIQARPEQVDAAVRLLDEGNTVPFIARYRKEITGGLDDTQLRNLETRLSYLRELEERRQAILKSISEQGKLTDDLAKAINATLSKTELEDLYLPYKPKRRTRGQIAIEAGLEPLADLLWSDPSHTPEVAAAQYVYADKGVADTKAALDGARYILMERFAEDAALLAKVRDYLWKNAHLVSTVVSGKEEEGAKFRDYFDHHEPLSTVPSHRALAMFRGRNEGVLQLSLNADPQFDEPPKESYCEQIIMDHLGLRLNNAPADSWRKGVVSWTWRIKVLMHLETELMGTVRERAEDEAINVFARNLHDLLMAAPAGLRATMGLDPGLRTGVKVAVVDATGKLVATDTIYPHTGQAAKAAMTVAALCEKHNVELVAIGNGTASRETERFYLDVQKQFPKVTAQKVIVSEAGASVYSASELAAQEFPDLDVSLRGAVSIARRLQDPLAELVKIDPKSIGVGQYQHDVSQTQLARKLDAVVEDCVNAVGVDLNTASVPLLTRVAGLTRMMAQNIVAWRDENGQFQNRQQLLKVSRLGPKAFEQCAGFLRINHGDNPLDASTVHPEAYPVVERILAATQQALKDLMGNSSELRNLKASDFTDEKFGVPTVTDIIKELEKPGRDPRPEFKTAQFADGVETMNDLQPGMILEGAVTNVTNFGAFVDIGVHQDGLVHISSLSNKFVEDPHTVVKAGDIVKVKVLEVDLQRKRIALTMRLDEQPGETNARRGGGNERPQNNRPAAKPRGREAQPAGNSAMMDALAAAMGKKR | 5.48 ± 0.19 | 4.8 ± 0.3 | 3.58 ± 0.041 | 3.26 ± 0.074 | 2.49 ± 0.14 | 4.69 ± 0.19 | 7.55 ± 0.32 | 3.63 ± 0.087 | 5.457 ± 0.049 | 3.88 ± 0.065 | 6.81 ± 0.56 | 4.124 ± 0.019
MMPEIGNGLLCLALGIALLLSVYPLWGVARGDARMMASSRLFAWLLFMSVAGAFLVLVNAFVVNDFTVTYVASNSNTQLPVWYRVAATWGAHEGSLLLWVLLMSGWTFAVAIFSQRIPLDIVARVLAIMGMVSVGFLLFILFTSNPFSRTLPNFPIEGRDLNPLLQDPGLIFHPPLLYMGYVGFSVAFAFAIASLLSGRLDSTYARFTRPWTLAAWIFLTLGIVLGSAWAYYELGWGGWWFWDPVENASFMPWLVGTALMHSLAVTEQRASFKAWTLLLAISAFSLCLLGTFLVRSGVLVSVHAFASDPARGMFILAFMVLVIGGSLLLFAARGHKVRSRVNNALWSRESLLLANNVLLVAAMLVVLLGTLLPLVHKQLGLGSISIGEPFFNTMFTWLMVPFALLLGVGPLVRWGRDRPRKIRNLLIIAFISTLVLSLLLPWLFESKVVAMTVLGLAMACWIAVLAIAEAALRISRGTKTTFSYWGMVAAHLGLAVTIVGIAFSQNYSVERDVRMKSGDSVDIHEYRFTFRDVKEVTGPNWRGGVATIGVTRDGKPETVLYAEKRYYNTAGSMMTEAAIDGGITRDLYAALGEELENGAWAVRLYYKPFVRWIWAGGLMMALGGLLCLFDPRYRKRVSPQKTAPEAV |  |  |  | 4.59 |  | > 8 | > 16 |  |  | 6.24 | 9.96 | 6.56
